Data on one molecule can be found in US6551840B2, “Method of screening TGF-β-inhibiting substances” (Chugai Seiyaku Kabushiki Kaisha, priority 1997, dated 2003).

Assay [1] deals with mouse kidney mesangial cell line SV40MES13. The assay is described as follows: Type I and type IV collagen EIA in SV40MES13 cells expressing TAK1-DN with or without TGF-β. Type of assay: cell-based. The conditions noted are these: 2.5 ng/ml TGF-β, 24 hours; for increase of type IV collagen in the culture supernatant by TGF-β addition: control MES/NEO about 2.0 fold; for increase of type I collagen in the culture supernatant by TGF-β addition: control MES/NEO about 3.6 fold. How it is done: (§1) The mouse mesangial cell line SV40MES13 (MES/DN3 and MES/DN6) into which pTAK1DN had been introduced and the control cells (MES/NEO) into which pCOS1 containing no inserted genes had been introduced were incubated in a low-serum medium (Medium 199 containing 0.2% FBS) with or without 2.5 ng/ml TGF-β for 24 hours. The amount of fibronectin in the culture supernatant or the extracellular matrix extract prepared using 1 M urea solution was determined by the EIA method as described in Example 7.
Furthermore, the amount of type I and type IV collagen in the culture supernatant was determined by the EIA method. Thus, 100 μl of the culture supernatant was added to a 96-well microtiter plate (manufactured by Nunc), and the plate was incubated overnight at 4° C. After washing, it was blocked using the above 1% BSA solution, and then 5000-fold diluted rabbit anti-mouse type I collagen antibody (manufactured by LSL) or rabbit anti-mouse type IV collagen antibody (manufactured by LSL) was added, and was further incubated at room temperature for 2 hours. After washing, alkaline phosphatase-labeled goat anti-rabbit Ig antibody (manufactured by TAGO) was added, and was further incubated at room temperature for one hour. Then the substrate solution (manufactured by Sigma) was added and absorbance at […] was measured. As a standard, mouse type I collagen (manufactured by Chemicon) or mouse type IV collagen (manufactured by Cosmobio) was used.

The subject of another assay is Mv1Lu cell. Nature of the assay: PAI-1 ELISA in culture supernatant of Mv1Lu cells with or without TGF-β1. The conditions noted are these: Mv1Lu cells with forced expression; 10 ng/ml TGF-β1, 24 hours; control cells about 16-fold. Type of assay: cell-based, mink. An excerpt: Accordingly, TAK1DN was subjected to forced expression in the Mv1Lu cell to investigate the effects of TGF-β stimulation on PAI-1 expression. The TAK1DN expression vector used was the above-mentioned TAK1DN, and the TAK1 polypeptide mutant TAK1-K63W expression vector was constructed by inserting a gene (Yamaguchi K. et al., (1995) Science 270, 2008-2011) encoding the TAK1 polypeptide mutant TAK1-K63W in which the lysine residue at position 63 has been replaced with the tryptophan residue at the EcoRI and NotI restriction enzyme site of pCOS1 to give pTAK1K63W.
The Mv1Lu cells into which pTAK1Dn had been introduced (Mv/DN2), the cells into which pTAK1K63W had been introduced (Mv/KN7), and the control cells into which pCOS1 containing no inserted genes (Mv/NEO) had been introduced were each incubated in a low-serum medium (MEM medium containing 0.2% FBS; manufactured by GIBCO-BRL) with or without 10 ng/ml of TGF-β1 for 24 hours. The amount of PAI-1 in the culture supernatant was determined using the PAI-1 Quantative ELISA (manufactured by CALBIOCHEM).
For orientation: ELISA stands for enzyme-linked immunosorbent assay.

For assay [2], the system named is mouse kidney mesangial cell line SV40MES13. The assay is described as follows: Fibronectin EIA in SV40MES13 cells expressing TAK1-DN with or without TGF-β. Type of assay: cell-based. The conditions noted are these: 2.5 ng/ml TGF-β, 24 hours; for increase of fibronectin in the culture supernatant by TGF-β addition: control MES/NEO about 3.3 fold; for increase of fibronectin in the extracellular matrix extract by TGF-β addition: control MES/NEO about 3.8 fold.
Excerpt: Then, pTAK1DN or pCOS1 that contains no inserted genes as a control vector was linearized by digesting with a restriction enzyme PvuI. These linearized vectors were introduced by electroporation into human fibroblast-derived HT-1080 (ATCC CCL 121), a mouse kidney mesangial cell line SV40MES13 (ATCC CRL 1927), and a mink pulmonary epithelial cell line Mv1Lu (ATCC CCL 64), and cells into which the gene was introduced were selected using G418 (manufactured by GIBCO-BRL).
as §1

B1: TAK1-DN: polypeptide of Glu at position 77 to Gln at position 303 of TAK1 (SEQ ID NO: 4), the TAB1 binding site; dominant negative inhibitor (protein)
chain: ELRQLSRVNHPNIVKLYGACLNPVCLVMEYAEGGSLYNVLHGAEPLPYYTAAHAMSWCLQCSQGVAYLHSMQPKALIHRDLKPPNLLLVAGGTVLKICDFGTACDIQTHMTNNKGSAAWMAPEVFEGSNYSEKCDVFSWGIILWEVITRRKPFDEIGGPAFRIMWAVHNGTRPPLIKNLPKPIESLMTRCWSKDPSQRPSMEEIVKIMTHLMRYFPGADEPLQYPCQ
For the molecule B1, the figures for the “increase of type IV collagen in the culture supernatant by TGF-β addition” value in assay [1] (MED/DN3 cells) and in assay [1] (MES/DN6 cells) were “about 1.5 fold” and approximately 1.4 fold, respectively. The “increase of type I collagen in the culture supernatant by TGF-β addition” value in assay [1] (MED/DN3 cells) and in assay [1] (MES/DN6 cells) was “about 2.0 fold” each time. Moreover, the “increase in PAI-1 in the culture supernatant by TGF-β1 addition” value with Mv1Lu cell is “about 4.3 fold”. Besides, the results for the “increase of fibronectin in the culture supernatant by TGF-β addition” value in assay [2] (MED/DN3 cells) and in assay [2] (MES/DN6 cells) were “about 2.4 fold” and approximately 2.3 fold, respectively. The “increase of fibronectin in the extracellular matrix extract by TGF-β addition” value in assay [2] (MED/DN3 cells) was “about 2.6 fold”; in assay [2] (MES/DN6 cells), approximately 2.1 fold.
